Reference: patent US20260125451A1

Target: BAFF and ARPIL
Test: cell-based or functional assay

Row | Binder | CD27+ CD38+ plasma cell count, mean, BAFF + APRIL-induced, drug at 10 nM | CD27+ CD38+ plasma cell count, mean, BAFF + APRIL-induced, drug at 100 nM | CD27+ CD38+ plasma cell count, mean, BAFF + APRIL-induced, drug at 1000 nM
1 | Telitacicept (RCT-18) (Fc fusion) SRVDQEERFPQGLWTGVAMRSCPEEQYWDPLLGTCMSCKTICNHQSQRTCAAFCRSLSCRKEQGKFYDHLLRDCISCASICGQHPKQCAYFCENKLRSPVNLPPELDKTHTCPPCPAPEAEGAPSVFLFPPKPKDTLMISRTPEVTCVVVDVSHEDPEVKFNWYVDGVEVHNAKTKPREEQYNSTYRVVSVLTVLHQDWLNGKEYKCKVSNKALPSSIEKTISKAKGQPREPQVYTLPPSRDELTKNQVSLTCLVKGFYPSDIAVEWESNGQPENNYKTTPPVLDSDGSFFLYSKLTVDKSRWQQGNVFSCSVMHEALHNHYTQKSLSLSPGK | 2450 count | 510 count | 230 count
2 | B637302 (protein) heavy: EVQLVQSGAEVKKPGESLKISCKGSGYIFTNYWIAWVRQMPGKGLESMGIIYPGDSDIRYSPSFQGQVTISADKSITTAYLQWSSLKASDTAMYYCARHDIEGFDYWGRGTLVTVSSASTKGPSVFPLAPSSKSTSGGTAALGCLVKDYFPEPVTVSWNSGALTSGVHTFPAVLQSSGLYSLSSVVTVPSSSLGTQTYICNVNHKPSNTKVDKRVEPKSCDKTHTCPPCPAPEFEGGPSVFLFPPKPKDTLMISRTPEVTCVVVDVSHEDPEVKFNWYVDGVEVHNAKTKPREEQYNSTYRVVSVLTVLHQDWLNGKEYKCKVSNKALPASIEKTISKAKGQPREPQVYTLPPSRDELTKNQVSLTCLVKGFYPSDIAVEWESNGQPENNYKTTPPVLDSDGSFFLYSKLTVDKSRWQQGNVFSCSVMHEALHNHYTQKSLSLSPGK light: EIVLTQSPGTLSLSPGERATLSCRASQSVSSSFFAWYQQKPGQAPRLLIYGASSRATGIPDRLSGSGSGTDFTLTITRLEPEDFAVYYCQQYDSSAITFGQGTRLEIKRTVAAPSVFIFPPSDEQLKSGTASVVCLLNNFYPREAKVQWKVDNALQSGNSQESVTEQDSKDSTYSLSSTLTLSKADYEKHKVYACEVTHQGLSSPVTKSFNRGECGGGGSGGGGSMLQMAGQCSQNEYFDSLLHACIPCQLRCSSNTPPLTCQRYCSTSCREEQGEFYDHLLRDCISCASICGQHPKQCAAFCE | 563 count | 482 count | 137 count
3 | B746201 (protein) heavy: EVQLVQSGAEVKKPGESLKISCKGSGYIFTNYWIAWVRQMPGKGLESMGIIYPGDSDIRYSPSFQGQVTISADKSITTAYLQWSSLKASDTAMYYCARHDIEGFDYWGRGTLVTVSSASTKGPSVFPLAPSSKSTSGGTAALGCLVKDYFPEPVTVSWNSGALTSGVHTFPAVLQSSGLYSLSSVVTVPSSSLGTQTYICNVNHKPSNTKVDKRVEPKSCDKTHTCPPCPAPEFEGGPSVFLFPPKPKDTLMISRTPEVTCVVVDVSHEDPEVKFNWYVDGVEVHNAKTKPREEQYNSTYRVVSVLTVLHQDWLNGKEYKCKVSNKALPASIEKTISKAKGQPREPQVYTLPPSRDELTKNQVSLTCLVKGFYPSDIAVEWESNGQPENNYKTTPPVLDSDGSFFLYSKLTVDKSRWQQGNVFSCSVMHEALHNHYTQKSLSLSPGKGGGGSGGGGSGGGGSMLQMAGQCSQNEYFDSLLHACIPCQLRCSSNTPPLTCQRYCSTSCREEQGEFYDHLLRDCISCASICGQHPKQCAAFCE light: EIVLTQSPGTLSLSPGERATLSCRASQSVSSSFFAWYQQKPGQAPRLLIYGASSRATGIPDRLSGSGSGTDFTLTITRLEPEDFAVYYCQQYDSSAITFGQGTRLEIKRTVAAPSVFIFPPSDEQLKSGTASVVCLLNNFYPREAKVQWKVDNALQSGNSQESVTEQDSKDSTYSLSSTLTLSKADYEKHKVYACEVTHQGLSSPVTKSFNRGEC | 575 count | 520 count | 410 count
4 | B606401 (protein) heavy: EVQLVQSGAEVKKPGESLKISCKGSGYIFTNYWIAWVRQMPGKGLESMGIIYPGDSDIRYSPSFQGQVTISADKSITTAYLQWSSLKASDTAMYYCARHDIEGFDYWGRGTLVTVSSASTKGPSVFPLAPSSKSTSGGTAALGCLVKDYFPEPVTVSWNSGALTSGVHTFPAVLQSSGLYSLSSVVTVPSSSLGTQTYICNVNHKPSNTKVDKRVEPKSCDKTHTCPPCPAPEFEGGPSVFLFPPKPKDTLMISRTPEVTCVVVDVSHEDPEVKFNWYVDGVEVHNAKTKPREEQYNSTYRVVSVLTVLHQDWLNGKEYKCKVSNKALPASIEKTISKAKGQPREPQVYTLPPSRDELTKNQVSLTCLVKGFYPSDIAVEWESNGQPENNYKTTPPVLDSDGSFFLYSKLTVDKSRWQQGNVFSCSVMHEALHNHYTQKSLSLSPGK light: EIVLTQSPGTLSLSPGERATLSCRASQSVSSSFFAWYQQKPGQAPRLLIYGASSRATGIPDRLSGSGSGTDFTLTITRLEPEDFAVYYCQQYDSSAITFGQGTRLEIKRTVAAPSVFIFPPSDEQLKSGTASVVCLLNNFYPREAKVQWKVDNALQSGNSQESVTEQDSKDSTYSLSSTLTLSKADYEKHKVYACEVTHQGLSSPVTKSFNRGECGGGGSGGGGSSTSCREEQGEFYDHLLRDCISCASICGQHPKQCAAFCE | 654 count | 549 count | 426 count
5 | B805201 (protein) heavy: EVQLVQSGAEVKKPGESLKISCKGSGYIFTNYWIAWVRQMPGKGLESMGIIYPGDSDIRYSPSFQGQVTISADKSITTAYLQWSSLKASDTAMYYCARHDIEGFDYWGRGTLVTVSSASTKGPSVFPLAPSSKSTSGGTAALGCLVKDYFPEPVTVSWNSGALTSGVHTFPAVLQSSGLYSLSSVVTVPSSSLGTQTYICNVNHKPSNTKVDKRVEPKSCDKTHTCPPCPAPEFEGGPSVFLFPPKPKDTLMISRTPEVTCVVVDVSHEDPEVKFNWYVDGVEVHNAKTKPREEQYNSTYRVVSVLTVLHQDWLNGKEYKCKVSNKALPASIEKTISKAKGQPREPQVYTLPPSRDELTKNQVSLTCLVKGFYPSDIAVEWESNGQPENNYKTTPPVLDSDGSFFLYSKLTVDKSRWQQGNVFSCSVMHEALHNHYTQKSLSLSPGKGGGGSGGGGSGGGGSSTSCREEQGEFYDHLLRDCISCASICGQHPKQCAAFCE light: EIVLTQSPGTLSLSPGERATLSCRASQSVSSSFFAWYQQKPGQAPRLLIYGASSRATGIPDRLSGSGSGTDFTLTITRLEPEDFAVYYCQQYDSSAITFGQGTRLEIKRTVAAPSVFIFPPSDEQLKSGTASVVCLLNNFYPREAKVQWKVDNALQSGNSQESVTEQDSKDSTYSLSSTLTLSKADYEKHKVYACEVTHQGLSSPVTKSFNRGEC | 434 count | 426 count | 438 count
